Experimental findings from US20160122418A1 (ARIDIS PHARMACEUTICALS, published 2016) are described below.

Test [1] addresses T1, F protein of palivizumab-resistant clinical RSV isolate #20 (RSV clinical isolate #20, UniProt P11209 26-574).
T1 chain: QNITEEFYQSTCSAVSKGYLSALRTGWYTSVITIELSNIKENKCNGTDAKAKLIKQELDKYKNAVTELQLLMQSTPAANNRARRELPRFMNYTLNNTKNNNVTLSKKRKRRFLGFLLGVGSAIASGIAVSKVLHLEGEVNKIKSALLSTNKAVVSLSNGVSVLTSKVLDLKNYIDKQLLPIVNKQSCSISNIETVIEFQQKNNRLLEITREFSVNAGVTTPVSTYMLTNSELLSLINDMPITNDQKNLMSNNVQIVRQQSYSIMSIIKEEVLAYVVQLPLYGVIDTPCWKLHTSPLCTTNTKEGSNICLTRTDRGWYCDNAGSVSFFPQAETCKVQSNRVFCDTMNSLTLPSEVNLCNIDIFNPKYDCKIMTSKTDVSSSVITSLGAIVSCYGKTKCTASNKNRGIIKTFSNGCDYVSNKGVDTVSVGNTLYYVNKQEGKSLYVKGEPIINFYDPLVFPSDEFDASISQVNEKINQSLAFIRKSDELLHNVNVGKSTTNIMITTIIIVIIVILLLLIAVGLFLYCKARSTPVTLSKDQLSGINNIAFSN
Nature of the test: cell-based or functional assay.

The target in test [2] is F protein of clinical RSV isolate #1 (RSV clinical isolate #1). As to the kind of experiment: cell-based or functional assay.
In test [3] the target is T2, F protein on intact RSV particles (Example 10, strain or isolate not stated) (RSV, strain ).
T2 construct: also called RSV viral particles
Nature of the test: competition ELISA; RSV particles pre-incubated with inhibiting mAb at 20 µg/mL; competitor (coating mAb): AR201. Background: An ELISA detects its analyte on a solid surface through an enzyme-linked reagent.

Test [4] addresses T3, Human RSV (A2) Fusion glycoprotein RSV F protein, Sino Biological Inc. (Human RSV (A2), UniProt P03420 26-529).
T3 construct: Bought protein; also called purified RSV F protein; recombinant human RSV F protein
Nature of the test: SPR, Biacore 2000, F protein amine-coupled to CM5 chip, antibody as analyte, Langmuir 1:1 fit. (SPR reads the build-up and loss of mass on a sensor chip optically.)

Test [5] concerns the target T2, F protein on intact RSV particles …. Nature of the test: competition ELISA; RSV particles pre-incubated with inhibiting mAb at 20 µg/mL; competitor (coating mAb): palivizumab.
Description: After incubation for one hour at 4° C., plates were washed and polyclonal rabbit-anti-RSV-HRP labeled antisera was added to each well. Bound viral particles were detected by colorimetric measurement. Maximum binding of RSV to the immobilized antibody in the presence of the competitor antibody was determined relative to binding in the presence of the monoclonal human IgG control antibody.
The target in test [6] is T3, Human RSV (A2) Fusion glycoprotein RSV …. As to the kind of experiment: ELISA, serial dilutions of purified AR201 on plates coated 'as described above' (RSV-EIA antigen by the legend of FIG. 6, or purified F protein); anti-human IgG-HRP.

As usually defined, the Kd is the free concentration of one partner at which half of the binding sites on the other are occupied at equilibrium, for simple one-to-one binding. Lower therefore signals tighter binding. The term koff denotes a measure of how fast the partners let go of each other. Usually kon stands for a measure of how fast the partners come together. Lower therefore signals slower complex formation. For orientation: EC50 means the concentration that produces a half-maximal response.

B1: AR201 (antibody, V domains shown)
VH: LVQLRESGPGLVKPSQTLSLTCSVSGASINLYDYFWGWIRQAPGRGPEWIGYISGSTYYNPSLKRRATISVDTSKSQFFLELTSVTAADTAVYYCARDVGWGPQYYYGLDVWGQGTTVTVSS
VL: DLVLTQSPGTLSLSPGERATLSCRASHSVQSTSLAWYQQKRGQAPRLLIYGGSSRVTGIPDRFSGSGSGTDFTLTISRLEPEDFAVYYCQQSDRSPPITFGQGTRLEMK
notes: Recombinant human IgG1 made in HEK293T cells; kappa light chain cloned whole; The claims' numbering is used here; also called KBRV201; human monoclonal antibody AR201
B1: the “IC50 of neutralization, infectivity assay on Hep2 cells” value in test [1] amounted to 1710 nM; in test [2], 1700 nM. Further, the “% binding of RSV to the coating mAb relative to control IgG” value came out at 22.5% in test [3] and 40.8% in test [5]. Also, binding in test [4] was put at a Kd of 0.058 nM. Also, the koff in test [4] is 2.7e-05 s⁻¹. This molecule also displayed a kon in test [4] of 470000 M⁻¹ s⁻¹. This molecule showed an EC50 in test [6] of 0.103 nM.
